Paper PMC9499683, “Isolation and Characterization of Homologically Expressed Methanol Dehydrogenase from Methylorubrum extorquens AM1 for the Development of Bioelectrocatalytical Systems” (International Journal of Molecular Sciences, 2022)

Assays:
Experiment in all cases: purified protein
Conditions in all cases: pH 9.0, 30 °C, free enzyme, ammonium needed as activator
[1] = substrate: CCO
[2] = substrate: CCCCCO; type: biochemical, Methylorubrum extorquens
[3] = substrate: CCCCO; type: biochemical, Methylorubrum extorquens
[4] = substrate: CO; type: biochemical, Methylorubrum extorquens

B1: MDH-His6-tag (recombinant PQQ-dependent methanol dehydrogenase, PQQ-MDH) (Methylorubrum extorquens AM1) (protein)
chain: NDKLVELSKSDDNWVMPGKNYDSNNFSDLKQINKGNVKQLRPAWTFSTGLLNGHEGAPLVVDGKMYIHTSFPNNTFALGLDDPGTILWQDKPKQNPAARAVACCDLVNRGLAYWPGDGKTPALILKTQLDGNVAALNAETGETVWKVENSDIKVGSTLTIAPYVVKDKVIIGSSGAELGVRGYLTAYDVKTGEQVWRAYATGPDKDLLLASDFNIKNPHYGQKGLGTGTWEGDAWKIGGGTNWGWYAYDPGTNLIYFGTGNPAPWNETMRPGDNKWTMTIFGRDADTGEAKFGYQKTPHDEWDYAGVNVMMLSEQKDKDGKARKLLTHPDRNGIVYTLDRTDGALVSANKLDDTVNVFKSVDLKTGQPVRDPEYGTRMDHLAKDICPSAMGYHNQGHDSYDPKRELFFMGINHICMDWEPFMLPYRAGQFFVGATLNMYPGPKGDRQNYEGLGQIKAYNAITGDYKWEKMERFAVWGGTMATAGDLVFYGTLDGYLKARDSDTGDLLWKFKIPSGAIGYPMTYTHKGTQYVAIYYGVGGWPGVGLVFDLADPTAGLGAVGAFKKLANYTQMGGGVVVFSLDGKGPYDDPNVGEWKSAAK
notes: full-length mxaF ORF with leader peptide and C-terminal His6 tag, expressed from pCM160 in M. extorquens AM1; small subunit co-purified from host; Ni-NTA; PQQ and Ca2+; with Methanol dehydrogenase [cytochrome c] subunit 2
With B1 the Km [1] was 610 ± 60 µM, the Vmax [1] was 2.9 µmol/min/mg and the Km [2] was 1400 ± 100 µM. The Vmax [2] was 2.8 µmol/min/mg, the Km [3] was 1900 ± 200 µM and the Vmax [3] was 2.7 µmol/min/mg. For the same protein, the Km [4] was 360 ± 70 µM and the Vmax [4] was 4.2 µmol/min/mg.
